B1: Protein BANP (Homo sapiens), Q8N9N5-2 (parent)
chain: MMSEHDLADVVQIAVEDLSPDHPVVLENHVVTDEDEPALKRQRLEINCQDPSIKSFLYSINQTICLRLDSIEAKLQALEATCKSLEEKLDLVTNKQHSPIQVPMVAGSPLGATQTCNKVRCAVPGRRQNTIVVKVPGQEDSHHEDGESGSEASDSVSSCGQAGSQSIGSNVTLITLNSEEDYPNGTWLGDENNPEMRVRCAIIPSDMLHISTNCRTAEKMALTLLDYLFHREVQAVSNLSGQGKHGKKQLDPLTIYGIRCHLFYKFGITESDWYRIKQSIDSKCRTAWRRKQRGQSLAVKSFSRRTPNSSSYCPSEPMMSTPPPASELPQPQPQPQALHYALANAQQVQIHQIGEDGQVQVIPQGHLHIAQVPQGEQVQITQDSEGNLQIHHVGQDGQVLQGAQLIAVASSDPAAAGVDGSPLQGSDIQVQYVQLAPVSDHTAGAQTAEALQPTLQPEMQLEHGAIQIQ
B2: E3 ubiquitin-protein ligase CCNB1IP1 (Homo sapiens), Q9NPC3 (parent)
chain: MSLCEDMLLCNYRKCRIKLSGYAWVTACSHIFCDQHGSGEFSRSPAICPACNSTLSGKLDIVRTELSPSEEYKAMVLAGLRPEIVLDISSRALAFWTYQVHQERLYQEYNFSKAEGHLKQMEKIYTQQIQSKDVELTSMKGEVTSMKKVLEEYKKKFSDISEKLMERNRQYQKLQGLYDSLRLRNITIANHEGTLEPSMIAQSGVLGFPLGNNSKFPLDNTPVRNRGDGDGDFQFRPFFAGSPTAPEPSNSFFSFVSPSRELEQQQVSSRAFKVKRI
B3: SKA complex subunit 1 (Homo sapiens), Q96BD8 (parent)
chain: MASSDLEQLCSHVNEKIGNIKKTLSLRNCGQEPTLKTVLNKIGDEIIVINELLNKLELEIQYQEQTNNSLKELCESLEEDYKDIEHLKENVPSHLPQVTVTQSCVKGSDLDPEEPIKVEEPEPVKKPPKEQRSIKEMPFITCDEFNGVPSYMKSRLTYNQINDVIKEINKAVISKYKILHQPKKSMNSVTRNLYHRFIDEETKDTKGRYFIVEADIKEFTTLKADKKFHVLLNILRHCRRLSEVRGGGLTRYVIT
partner: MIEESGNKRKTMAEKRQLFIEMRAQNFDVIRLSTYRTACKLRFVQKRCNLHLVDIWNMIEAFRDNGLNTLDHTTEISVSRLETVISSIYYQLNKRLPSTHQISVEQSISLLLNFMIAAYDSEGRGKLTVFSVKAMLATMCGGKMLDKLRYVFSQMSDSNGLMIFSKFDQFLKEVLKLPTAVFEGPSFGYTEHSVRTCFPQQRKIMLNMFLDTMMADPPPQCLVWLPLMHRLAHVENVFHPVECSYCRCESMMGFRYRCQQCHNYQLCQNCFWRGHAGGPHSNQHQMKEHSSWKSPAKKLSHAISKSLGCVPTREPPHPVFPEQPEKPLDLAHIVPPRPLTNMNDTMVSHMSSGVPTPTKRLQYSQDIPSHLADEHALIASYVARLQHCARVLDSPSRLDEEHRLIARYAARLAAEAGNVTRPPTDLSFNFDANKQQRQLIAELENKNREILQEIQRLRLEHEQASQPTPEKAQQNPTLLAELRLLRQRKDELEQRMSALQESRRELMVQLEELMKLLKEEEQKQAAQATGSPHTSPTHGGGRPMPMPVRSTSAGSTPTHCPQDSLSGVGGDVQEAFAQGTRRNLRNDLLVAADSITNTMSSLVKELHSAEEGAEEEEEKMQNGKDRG
B4: Centrosomal protein of 55 kDa (Homo sapiens), Q53EZ4 (parent)
chain: MSSRSTKDLIKSKWGSKPSNSKSETTLEKLKGEIAHLKTSVDEITSGKGKLTDKERHRLLEKIRVLEAEKEKNAYQLTEKDKEIQRLRDQLKARYSTTTLLEQLEETTREGERREQVLKALSEEKDVLKQQLSAATSRIAELESKTNTLRLSQTVAPNCFNSSINNIHEMEIQLKDALEKNQQWLVYDQQREVYVKGLLAKIFELEKKTETAAHSLPQQTKKPESEGYLQEEKQKCYNDLLASAKKDLEVERQTITQLSFELSEFRRKYEETQKEVHNLNQLLYSQRRADVQHLEDDRHKTEKIQKLREENDIARGKLEEEKKRSEELLSQVQFLYTSLLKQQEEQTRVALLEQQMQACTLDFENEKLDRQHVQHQLHVILKELRKARNQITQLESLKQLHEFAITEPLVTFQGETENREKVAASPKSPTAALNESLVECPKCNIQYPATEHRDLLVHVEYCSK

Variants of: B1
Conditions: with kcc2d_human CAMK2D

Row | effect of a mutation on the interaction | Variant
1 | with no effect | A162V

Variants of: B1
Conditions: with FAM117B

Row | effect of a mutation on the interaction | Variant
2 | with no effect | A162V

Variants of: B1
Conditions: with aakb2_human PRKAB2, O43741
aakb2_human PRKAB2, O43741, sequence (O43741 whole entry): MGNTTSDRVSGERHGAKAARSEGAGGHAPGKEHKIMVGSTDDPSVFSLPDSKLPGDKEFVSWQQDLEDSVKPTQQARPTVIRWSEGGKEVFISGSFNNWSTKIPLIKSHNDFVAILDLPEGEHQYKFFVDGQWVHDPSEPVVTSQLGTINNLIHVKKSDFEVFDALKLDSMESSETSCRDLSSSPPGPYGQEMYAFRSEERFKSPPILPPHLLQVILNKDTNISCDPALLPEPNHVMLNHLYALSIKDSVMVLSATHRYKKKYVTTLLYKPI

Row | effect of a mutation on the interaction | Variant
3 | with no effect | A162V

Variants of: B1
Conditions: with pf21a_human PHF21A

Row | effect of a mutation on the interaction | Variant
4 | with no effect | A162V

Variants of: B2
Conditions: with aapk2_human PRKAA2, P54646
aapk2_human PRKAA2, P54646, sequence (P54646 whole entry, looked up): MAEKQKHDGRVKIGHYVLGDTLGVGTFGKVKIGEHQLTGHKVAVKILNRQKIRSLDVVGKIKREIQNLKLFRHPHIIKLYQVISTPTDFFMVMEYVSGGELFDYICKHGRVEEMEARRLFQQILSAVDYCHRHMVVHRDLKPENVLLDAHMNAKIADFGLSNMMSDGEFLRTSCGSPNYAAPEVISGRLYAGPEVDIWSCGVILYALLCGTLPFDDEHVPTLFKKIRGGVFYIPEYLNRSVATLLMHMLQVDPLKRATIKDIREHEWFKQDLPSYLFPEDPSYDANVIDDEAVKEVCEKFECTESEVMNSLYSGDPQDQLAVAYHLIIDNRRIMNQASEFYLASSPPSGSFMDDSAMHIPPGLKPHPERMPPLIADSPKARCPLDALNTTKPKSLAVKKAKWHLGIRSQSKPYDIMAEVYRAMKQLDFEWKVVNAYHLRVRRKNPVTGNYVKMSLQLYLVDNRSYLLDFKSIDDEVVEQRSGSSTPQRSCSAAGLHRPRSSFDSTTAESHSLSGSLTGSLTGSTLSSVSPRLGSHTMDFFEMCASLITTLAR

Row | Variant | effect of a mutation on the interaction
5 | F41L | with no effect
6 | Y106H | with no effect
7 | R104H | disrupting interaction strength

The next lines start with the values.

Row | effect of a mutation on the interaction | Variant
8 | with no effect | T187A
9 | with no effect | N212D

Variants of: B2
Conditions: with KRT15, P19012
KRT15, P19012, sequence (P19012 whole entry): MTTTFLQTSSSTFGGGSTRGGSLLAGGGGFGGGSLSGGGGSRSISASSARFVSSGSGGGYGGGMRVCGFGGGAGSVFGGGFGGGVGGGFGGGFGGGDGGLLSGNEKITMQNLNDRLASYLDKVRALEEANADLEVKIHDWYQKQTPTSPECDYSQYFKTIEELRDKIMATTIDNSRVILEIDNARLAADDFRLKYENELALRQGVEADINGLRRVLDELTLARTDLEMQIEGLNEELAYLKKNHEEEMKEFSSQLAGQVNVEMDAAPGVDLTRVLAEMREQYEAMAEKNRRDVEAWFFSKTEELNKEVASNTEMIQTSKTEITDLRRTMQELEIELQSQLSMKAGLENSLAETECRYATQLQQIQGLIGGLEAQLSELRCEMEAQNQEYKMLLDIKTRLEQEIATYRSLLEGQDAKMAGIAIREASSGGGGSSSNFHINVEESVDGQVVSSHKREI

Row | Variant | effect of a mutation on the interaction
10 | F41L | with no effect
11 | Y106H | disrupting interaction strength
12 | R104H | with no effect

Results, then the variant that gave them:

Row | effect of a mutation on the interaction | Variant
13 | with no effect | T187A
14 | with no effect | N212D

Variants of: B2
Conditions: with keap1_human KEAP1, Q14145
keap1_human KEAP1, Q14145, sequence (Q14145 whole entry): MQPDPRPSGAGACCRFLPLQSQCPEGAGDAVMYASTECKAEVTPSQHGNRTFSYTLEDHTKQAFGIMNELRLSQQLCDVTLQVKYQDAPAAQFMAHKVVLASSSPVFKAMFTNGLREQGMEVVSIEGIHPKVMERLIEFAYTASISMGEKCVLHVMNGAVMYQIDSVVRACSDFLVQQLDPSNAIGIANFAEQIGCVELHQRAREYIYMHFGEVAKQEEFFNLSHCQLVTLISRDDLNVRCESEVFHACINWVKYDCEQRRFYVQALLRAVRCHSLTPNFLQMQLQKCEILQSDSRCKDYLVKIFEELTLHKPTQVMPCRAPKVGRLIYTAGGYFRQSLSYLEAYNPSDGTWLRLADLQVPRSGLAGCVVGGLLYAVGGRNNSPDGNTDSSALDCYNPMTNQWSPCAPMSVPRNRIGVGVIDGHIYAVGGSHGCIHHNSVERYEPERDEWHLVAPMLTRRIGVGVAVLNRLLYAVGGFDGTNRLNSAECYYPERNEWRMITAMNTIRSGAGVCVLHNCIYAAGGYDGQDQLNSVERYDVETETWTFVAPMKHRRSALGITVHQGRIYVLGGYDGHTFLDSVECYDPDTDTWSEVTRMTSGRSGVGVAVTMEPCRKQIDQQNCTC

Row | Variant | effect of a mutation on the interaction
15 | F41L | with no effect
16 | Y106H | with no effect
17 | R104H | with no effect

Results, then the variant that gave them:

Row | effect of a mutation on the interaction | Variant
18 | with no effect | T187A
19 | with no effect | N212D

Variants of: B3
Conditions: with dtnb_human DTNB

Row | effect of a mutation on the interaction | Variant
20 | with no effect | V91I

Variants of: B4
Conditions: with dpolm_human POLM

Row | effect of a mutation on the interaction | Variant
21 | with no effect | H57Q
22 | with no effect | C236R

Variants of: B4
Conditions: with tead4_human TEAD4, Q15561
tead4_human TEAD4, Q15561, sequence (Q15561 whole entry): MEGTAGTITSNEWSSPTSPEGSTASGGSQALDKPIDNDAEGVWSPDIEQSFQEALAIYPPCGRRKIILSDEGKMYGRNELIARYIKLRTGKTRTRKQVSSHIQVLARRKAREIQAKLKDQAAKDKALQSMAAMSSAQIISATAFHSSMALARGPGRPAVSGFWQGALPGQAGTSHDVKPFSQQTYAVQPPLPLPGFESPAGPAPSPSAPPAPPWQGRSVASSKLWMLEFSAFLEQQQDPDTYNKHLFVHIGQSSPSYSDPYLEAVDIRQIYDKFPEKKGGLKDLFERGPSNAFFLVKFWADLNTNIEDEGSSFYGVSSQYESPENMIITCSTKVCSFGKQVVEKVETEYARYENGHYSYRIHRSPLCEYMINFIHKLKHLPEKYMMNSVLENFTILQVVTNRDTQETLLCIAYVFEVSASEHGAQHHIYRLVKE

Row | effect of a mutation on the interaction | Variant
23 | with no effect | H57Q
24 | with no effect | C236R

Variants of: B4
Conditions: with anx11_human ANXA11, P50995
anx11_human ANXA11, P50995, sequence (P50995 whole entry): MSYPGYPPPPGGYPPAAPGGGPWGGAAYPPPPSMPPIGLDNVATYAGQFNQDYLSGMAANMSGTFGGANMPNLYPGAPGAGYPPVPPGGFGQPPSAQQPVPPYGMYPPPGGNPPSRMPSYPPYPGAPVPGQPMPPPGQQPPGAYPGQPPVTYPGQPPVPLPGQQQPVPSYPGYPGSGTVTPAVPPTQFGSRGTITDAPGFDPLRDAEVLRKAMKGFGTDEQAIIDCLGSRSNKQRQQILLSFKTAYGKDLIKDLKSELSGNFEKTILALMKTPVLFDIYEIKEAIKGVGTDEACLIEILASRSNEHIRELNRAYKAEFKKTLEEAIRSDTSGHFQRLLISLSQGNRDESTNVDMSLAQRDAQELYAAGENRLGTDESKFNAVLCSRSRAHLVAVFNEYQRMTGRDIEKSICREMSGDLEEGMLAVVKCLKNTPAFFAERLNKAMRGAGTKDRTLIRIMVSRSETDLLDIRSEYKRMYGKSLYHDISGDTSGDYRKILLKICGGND

Row | effect of a mutation on the interaction | Variant
25 | with no effect | H57Q
26 | with no effect | C236R

Variants of: B4
Conditions: with pdc6i_human PDCD6IP

Row | effect of a mutation on the interaction | Variant
27 | with no effect | H57Q
28 | with no effect | C236R

Source: IntAct's records for PubMed 31515488
